Tested on: IL-4 regulatory element (STAT6)
Test: Confirmation of transcriptional regulatory activity: IL-4 stimulation of reporter-transfected HeLa cells, HTRF ratio value
Type: cell-based, human
Conditions: HeLa cells transfected with reporter plasmid; IL-4 0-100 ng/ml, 3-48 hours
Description: HeLa cells (cells deposited with ATCC) were dispersed at a density of 1.2×10^5 cells/ml in a medium (MEM medium containing 10% fetal bovine serum, 100 units/ml penicillin G, 100 μg/ml streptomycin) and then put in a volume of 100 μl per well on a 96-well tissue culture plate. After 24 hours, 20 μg of the reporter plasmid prepared in Example 1, and 60 μl FuGENE6 (Roche), were added to 2 ml FBS-free medium, then left at room temperature for 20 minutes, and added in a volume of 5 μl to each well, followed by incubation for 24 hours to transfect the cells with the reporter plasmid.
After the culture supernatant of the cells was removed, 100 μl of IL-4 diluted with a medium was added at final concentrations of 0, 4, 20 and 100 ng/ml respectively to the respective wells and cultured for 3, 6, 24 and 48 hours. After culture, a cell lysis buffer (Tris buffered physiological saline containing 1% Triton X-100, 5 mM EDTA and a protease inhibitor cocktail) was added in a volume of 100 μl to each well and left at room temperature for 1 hour. […] After the reaction was finished, the fluorescence intensity of each well at 665 nm was measured with a time-resolved fluorescence microplate reader (Rubystar, BMG Labtechnologies). The measurement value was expressed as the ratio value to the fluorescence intensity of cryptate at 620 nm.

B1: IL-4: cytokine that binds IL-4 receptors and activates JAK1/JAK3 and transcription factor STAT6 (protein, UniProt P05112 25-153, looked up)
Interleukin-4: HKCDITLQEIIKTLNSLTEQKTLCTELTVTDIFAASKNTTEKETFCRAATVLRQFYSHHEKDTRCLGATAQQFHRHKQLIRFLKRLDRNLWGLAGLNSCPVKEANQSTLENFLERLKTIMREKYSKCSS
increase in ratio value by stimulation with IL-4: about 10 fold
